Reference: patent US7407934
Changes are numbered by the printed parent chain. Positions of bridges follow the written chain, without caps; N, C: chain ends. No end group written: not given here.

B1: 25,28Pro-h-Amylin (peptide, from a related filing)
peptide: KCNTATCATQRLANFLVHSSNNFGPILPSTNVGSNTY
B2: 25Pro26Val28,29Pro-h-Amylin (peptide)
peptide: B1 peptide with I26V, S29P
modifications: 2,7-disulfide; made on methylbenzhydrylamine resin (C-terminal amide not printed in so many words)
B3: 2,7Cyclo-[2Asp,7Lys]-h-Amylin (peptide, from a related filing)
peptide: B1 peptide with C2D, C7K, P25A, P28S
modifications: lactam 2-7; ends not checked
B4: 18Arg25,28Pro-h-Amylin (peptide)
peptide: B1 peptide with H18R
modifications: 2,7-disulfide; made on methylbenzhydrylamine resin (C-terminal amide not printed in so many words)
B5: 18Arg25,28,29Pro-h-Amylin (peptide)
peptide: B1 peptide with H18R, S29P
modifications: 2,7-disulfide; made on methylbenzhydrylamine resin (C-terminal amide not printed in so many words)
B6: des-1Lys25,28Pro-h-Amylin (peptide, from a related filing)
peptide: CNTATCATQRLANFLVHSSNNFGPILPSTNVGSNTY
B7: des-1Lys18Arg25,28,29Pro-h-Amylin (peptide)
peptide: B6 peptide with H17R, S28P
modifications: 2,7-disulfide; made on methylbenzhydrylamine resin (C-terminal amide not printed in so many words)
B8: des-1Lys25,28,29Pro-h-Amylin (peptide)
peptide: B6 peptide with S28P
modifications: 2,7-disulfide; made on methylbenzhydrylamine resin (C-terminal amide not printed in so many words)
B9: des-1Lys18Arg25,28Pro-h-Amylin (peptide)
peptide: B6 peptide with H17R
modifications: 2,7-disulfide; made on methylbenzhydrylamine resin (C-terminal amide not printed in so many words)

Target: amylin receptor (rat basal forebrain membranes containing the nucleus accumbens and surrounding regions) (rat)
Assay: competition with 125I-Bolton-Hunter rat amylin on rat basal forebrain membranes, filtration

IC50 [nM] | Binder
0.026 | B1
0.018 | B2
0.31 | B3
0.032 | B4
0.021 | B5
0.085 | B6
0.021 | B7
0.014 | B8
0.082 | B9
